The results in this text go back to patent US20240190968A1 (HEFEI TG IMMUNOPHARMA, published 2024).

Assay [1] has as its target T1, recombinant B7H6 extracellular region Fc fusion protein (human).
T1 construct: also called B7H6-Fc; B7H6-Fc fusion protein
Description: ELISA, B7H6-Fc coated at 1 ug/mL, HRP anti-mouse secondary antibody, OD450. As for the experimental part: The ELISA assay was used to detect the binding characteristics of the B7H6 antibody. The B7H6 extracellular region Fc fusion protein (B7H6-Fc) described above was coated into a 96-well plate. The signal strength after antibody addition was used to determine the binding characteristic of the antibody and B7H6.
The B7H6-Fc fusion protein (amino acid sequence as set forth in SEQ ID NO. 22) was diluted to 1 μg/mL with PBS buffer and added to a 96-well plate in a volume of 100 μL/well and left overnight at 4° C. The PBS buffer solution was sucked off from the 96-well plate. The plate was washed 6 times with PBST (pH 7.2, PBS containing 0.1% Tween 20) buffer solution. 200 μL/well PBS/10% BSA was added and incubated at 37° C. for 2 hours for blocking. The blocking solution was removed. The plate was washed 6 times with PBST. 100 μL/well B7H6 antibody to be tested was diluted to an appropriate concentration with PBST/0.05% BSA, and incubated at 37° C. for 1 h. The reaction system was removed. The plate was washed 6 times with PBST. HRP (horseradish peroxidase)-labeled anti-mouse antibody secondary antibody was diluted with PBST/0.05% BSA at 100 μL/well and incubated for 1 h at 37° ° C. The plate was washed 6 times with PBST and 80 μL/well TMB (tetramethylbenzidine) was added. […] The absorbance at […] was read with a microplate reader.
(In general: ELISA stands for enzyme-linked immunosorbent assay.)

The target of assay [2] is T1, recombinant B7H6 extracellular region …. Description: SPR, Biacore T200, B7H6-Fc amine-coupled to CM5 chip, antibody injected, 1:1 Langmuir model; murine 12F5. The method, then: (§1) The Biacore method is widely-recognized as an objective method for detecting the mutual affinity and binding kinetics of proteins. The affinity and binding kinetics of the B7H6 antibody of the present disclosure are analyzed and characterized through Biacore T200.
(§2) The B7H6 extracellular segment Fc fusion protein (B7H6-Fc) was covalently attached to a CM5 (GE) chip using standard amino coupling methods. A series of concentration gradients of B7H6 antibody diluted in PBS were then injected with each cycle and regenerated with 10 mM NaOH solution. The antigen-antibody binding kinetics were traced for 3 minutes and the dissociation kinetics were traced for 10 minutes, and the resulting data were analyzed by a 1:1 (Langmuir) binding model using GE's BIAevaluation software.

The target of assay [3] is T2, B7H6 protein overexpressed in HL60 cells (human, UniProt Q68D85 25-454).
T2 construct: Full-length entry expressed from a lentiviral vector; also called HL60-B7H6
T2 sequence: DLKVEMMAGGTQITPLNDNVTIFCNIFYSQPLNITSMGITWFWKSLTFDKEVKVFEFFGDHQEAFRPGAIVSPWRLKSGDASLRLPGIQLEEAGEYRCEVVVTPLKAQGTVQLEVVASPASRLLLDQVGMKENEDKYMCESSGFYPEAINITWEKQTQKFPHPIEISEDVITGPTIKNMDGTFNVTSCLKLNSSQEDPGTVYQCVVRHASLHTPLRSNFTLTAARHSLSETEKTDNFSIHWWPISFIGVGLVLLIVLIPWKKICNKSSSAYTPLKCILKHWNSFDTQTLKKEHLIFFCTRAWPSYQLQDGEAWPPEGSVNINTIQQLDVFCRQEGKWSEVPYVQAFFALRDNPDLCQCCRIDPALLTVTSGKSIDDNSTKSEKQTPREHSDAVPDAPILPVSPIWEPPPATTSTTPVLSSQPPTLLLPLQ
Nature of the assay: flow cytometry on HL60-B7H6 cells, Alexa-647 goat anti-mouse secondary antibody, binding ratio (%). As for the experimental part: The flow cytometry assay was used to detect the binding characteristics of B7H6 antibody and to overexpress B7H6 protein (HL60-B7H6, SEQ ID NO. 21; SEQ ID NO. 54) in HL60 cells (ATCC NO. CCL-240). The expression vector is pLVX-EF1a-B7H6-IRES-ZsGreen, and the signal strength after antibody addition is used to determine the binding characteristics of the antibody and B7H6.
HL60-B7H6 cells were diluted to 2×10⁶/mL with PBS and were added to a 1.5 ml EP tube at 100 μL/tube. Goat serum at 10 μL/tube was added thereto and was blocked at 4° C. for 30 min. The B7H6 antibody was added at 1 μg/tube and incubated for 30 min at 4° C. The EP tube was added with 1 mL of PBS and centrifuged at 3500 rpm at 4° C. for 5 min. The supernatant was discarded and the precipitate was washed once more with PBS. After centrifugation, the supernatant was discarded, and the cells were resuspended with 100 μl/tube of PBS, and 0.1 μL/tube of goat anti-mouse antibody secondary antibody (Invitrogen) labeled with Alexa-647 was added thereto, and incubated at 4° C., under the condition of avoiding light, for 30 min. The cell-containing precipitate was washed twice with PBS and the supernatant was discarded after centrifugation. The cells were resuspended with 200 μL/tube of PBS and detected by flow cytometry.
For orientation: In flow cytometry, cells or beads pass a laser one at a time.

Assay [4] concerns the target T1, recombinant B7H6 extracellular region …. Description: ELISA, B7H6-Fc coated at 1 ug/mL, HRP mouse anti-human IgG (Fab-specific) secondary antibody, OD450. As for the experimental part: The ELISA assay was used to detect the binding characteristics of the humanized B7H6 antibody. The B7H6 extracellular region Fc fusion protein (B7H6-Fc) described above was coated into a 96-well plate. The signal strength after antibody addition was used to determine the binding characteristics of antibodies and B7H6.
The B7H6-Fc fusion protein (amino acid sequence as set forth in SEQ ID NO. 22) was diluted to 1 μg/mL with PBS buffer and added to a 96-well plate in a volume of 100 μL/well and left overnight at 4° C. The PBS buffer solution was sucked off from the 96-well plate. The plate was washed 6 times with PBST (pH 7.2, PBS containing 0.1% Tween 20) buffer solution. 200 μL/well PBS/10% BSA was added and incubated at 37° C. for 2 hours for blocking. The blocking solution was removed. The plate was washed 6 times with PBST. B7H6 antibody to be tested which diluted with PBST/0.05% BSA to an appropriate concentration was added at 100 µL/well, and incubated at 37° C. for 1 h. The reaction system was removed. The plate was washed 6 times with PBST. HRP (horseradish peroxidase)-labeled mouse anti-human IgG (Fab-specific) secondary antibody (Sigma) was diluted with PBST/0.05% BSA at 100 μL/well and incubated for 1 h at 37° C. The plate was washed 6 times with PBST, and 80 μL/well TMB (tetramethylbenzidine) was added. […] The absorbance at […] was read with a microplate reader.

Assay [5] concerns the target T3, recombinant Cynomolgus monkey B7H6 extracellular region Fc fusion protein (Cynomolgus monkey).
T3 construct: also called cynoB7H6-Fc; cynoB7H6-Fc fusion protein
Nature of the assay: ELISA, cynoB7H6-Fc coated at 1 ug/mL, HRP mouse anti-human IgG (Fab-specific) secondary antibody, OD450. The method, then: The ELISA assay was used to detect the binding characteristics of the humanized B7H6 antibody. The Cynomolgus monkey B7H6 extracellular Fc fusion protein (cynoB7H6-Fc) was coated into a 96-well plate. The signal strength after antibody addition was used to determine the binding characteristics of the antibody and monkey B7H6.
The cynoB7H6-Fc fusion protein (amino acid sequence as set forth in SEQ ID NO. 23) was diluted to 1 μg/mL with PBS buffer and added to a 96-well plate in a volume of 100 μL/well and left overnight at 4° C. The PBS buffer solution was sucked off from the 96-well plate. The plate was washed 6 times with PBST (pH 7.2, PBS containing 0.1% Tween 20) buffer solution. 200 μL/well of PBS/10% BSA was added and incubated at 37° C. for 2 hours for blocking. The blocking solution was removed. The plate was washed 6 times with PBST. B7H6 antibody to be tested which was diluted with PBST/0.05% BSA to an appropriate concentration was added at 100 µL/well, and incubated at 37° C. for 1 h. The reaction system was removed. The plate was washed 6 times with PBST. HRP (horseradish peroxidase)-labeled mouse anti-human IgG (Fab-specific) secondary antibody (Sigma) was diluted with PBST/0.05% BSA at 100 μL/well and incubated for 1 h at 37° C. […] The absorbance at […] was read with a microplate reader.

Assay [6] deals with T2, B7H6 protein overexpressed in HL60 cells. Nature of the assay: flow cytometry on HL60-B7H6 cells, Alexa-647 mouse anti-human IgG-Fc secondary antibody, binding ratio (%). The method, then:
The flow cytometry assay was used to detect the binding characteristics of the B7H6 antibody. The B7H6 protein (HL60-B7H6) was overexpressed in HL60 cells (ATCC No. CCL-240) (as shown in Example 3), and the signal strength after antibody addition was used to determine the binding characteristics of the antibody and B7H6.
HL60-B7H6 cells were diluted to 2×10⁶/mL with PBS and added to a 1.5 mL EP tube in a volume of 100 μL/tube. 10 μL/tube of mouse serum was added thereto and was blocked at 4° C. for 30 min. The humanized B7H6 antibody was added at 1 μg/tube and incubated for 30 min at 4° C. The EP tube was added with 1 mL of PBS and centrifuged at 3500 rpm at 4° C. for 5 min. The supernatant was discarded and the precipitate was washed once more with PBS. After centrifugation, the supernatant was discarded. The cells were resuspended with 100 μL/tube of PBS, 1 μL/tube of Alexa-647-labeled mouse anti-human IgG-Fc secondary antibody (Biolegend) was added thereto, and incubated at 4° C., under the condition of avoiding light, for 30 min. The cell-containing precipitate was washed twice with PBS and the supernatant was discarded after centrifugation. The cells were resuspended with 200 μL/tube of PBS and detected by flow cytometry.

Assay [7] deals with T1, recombinant B7H6 extracellular region …. Description: SPR, Biacore T200, B7H6-Fc amine-coupled to CM5 chip, antibody injected, 1:1 Langmuir model; murine 12G4. As for the experimental part:
as §1, §2

T3 sequence (chain, as listed by the source limits assumed): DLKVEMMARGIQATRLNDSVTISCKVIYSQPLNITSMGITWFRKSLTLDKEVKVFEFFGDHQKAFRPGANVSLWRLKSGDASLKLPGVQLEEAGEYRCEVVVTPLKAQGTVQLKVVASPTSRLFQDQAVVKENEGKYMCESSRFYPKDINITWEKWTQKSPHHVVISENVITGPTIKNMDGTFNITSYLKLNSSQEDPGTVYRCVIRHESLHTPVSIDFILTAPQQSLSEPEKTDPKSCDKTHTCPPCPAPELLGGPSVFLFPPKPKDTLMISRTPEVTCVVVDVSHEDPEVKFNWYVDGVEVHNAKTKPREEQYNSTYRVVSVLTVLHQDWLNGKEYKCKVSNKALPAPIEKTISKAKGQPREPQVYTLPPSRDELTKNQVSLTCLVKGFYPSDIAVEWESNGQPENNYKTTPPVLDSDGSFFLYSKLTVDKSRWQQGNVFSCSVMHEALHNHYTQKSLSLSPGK

B1: murine antibody 12F5 (antibody, mouse IgG2a, kappa, V domains shown)
VH: QVQLQQSGAELVKPGASVKLSCKASGYTFTSYYMYWVKQRPGQGLEWIGEINPSNGGTNFNEKFKSKATLTVDKSSSTAYMQLSSLTSEDSAVYYCTRTLYYGNDWYFDVWGAGTTVTVSS
VL: QIVLTQSPAIMSASPGEKVTMTCSASSSVNYMHWYQQKSGTSPKRWIYDTSKLASGVPARFSGSGSGTSYSLTISSMEAEDAATYYCQQWSSNPVTFGAGTKLELKR
notes: also called murine 12F5; B7H6 murine 12F5 antibody
What is called EC50 (read off the curve) is the concentration giving half of the maximal effect. As usually defined, the Kd is the concentration at which binding is half-saturated. Turning to B1, the half-maximal effective concentration (EC50 (read off the curve)) is around 0.03 mg/L in assay [1] and around 0.006 mg/L in assay [3]. The Kd in assay [2] was 2.2 nM.

B2: humanized antibody h12G4 (antibody, human IgG1, kappa, V domains shown)
VH: EVQLVQSGAEVKKPGASVKVSCKASGYTFTDYNMDWVRQAPGKGLEWIGDINPNNGGTLYNQKFRGRVTLTVDKSISTAYMELSRLRSDDTAVYYCARSEVFYGNYADYWGQGTTVTVSS
VL: DIVLTQTPLSLSVTPGQPASISCKASQSVDYDGDSYMNWYLQKPGQPPQLLIYAASTLHSGVPDRFSGSGSGTDFTLKISRVEAEDVGVYYCQQSKEDPRTFGQGTKLEIKR
notes: also called humanized 12G4
For the molecule B2, the “EC50 (read off the curve)” value in assay [4] and in assay [6] was around 0.05 mg/L each time. Also, in assay [5], the binding result is recorded as “binds”.

B3: murine antibody 12G4 (antibody, mouse IgG2a, kappa, V domains shown)
VH: EVLLQQSGPEVVKPGASVKITCKASGYTFTDYNMDWVKQSHGKSLEWIGDINPNNGGTLYNQKFRGRVTLIVDKSSSTAYMELRSLTSDDTAVYYCARSEVFYGNYADYWGQGTTLTVSS
VL: DIVLTQSPVSLAVPLGQRATISCKASQSVDYDGDSYMNWYQQKPGQPPKLLIYAASTLHSGIPVRFSGSGSGTDFTLNIHPVEEEDAASYYCQQSKEDPRTFGGGTKLEIKR
notes: also called murine 12G4
On to B3, for which the concentration for a half-maximal effect (EC50 (read off the curve)) is around 0.03 mg/L in assay [1] and around 0.01 mg/L in assay [3]. Moreover, the Kd in assay [7] stood at 0.15 nM.

B4: humanized antibody h12F5 (antibody, human IgG1, kappa, V domains shown)
VH: EVQLVQSGAEVKKPGASVKVSCKASGYTFTSYYMYWVRQAPGQGLEWIGEINPSNGGTNFNEKFKSRVTLTVDKSISTAYMELSRLRSDDTAVYYCTRTLYYGNDWYFDVWGQGTTVTVSS
VL: EIVLTQSPDFQSVTPKEKVTITCSASSSVNYMHWYQQKPDQSPKRLIYDTSKLASGVPSRFSGSGSGTDYTLTINSLEAEDAATYYCQQWSSNPVTFGQGTKLEIKR
notes: also called humanized 12F5
B4: the “EC50 (read off the curve)” value was around 0.02 mg/L in assay [4] and around 0.03 mg/L in assay [6].
